Assay results published in the supplement of paper PMC10567573.

B1: NP_009172.2 (parent)
chain: LPALFTDLYSQEITAEEAREALP

Variants of: B1
Experiment: protein stability index of a GFP-peptide fusion (GPS, HEK-293T) (PSI 1-6); higher = more stable
Conditions: c terminus: native
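Also: lentivirally expressed fusion library, cells FACS-sorted into six equal-sized GFP/DsRed ratio bins, PSI computed from sequencing read fractions per bin weighted by bin number.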

| Variant | protein stability index |
| --- | --- |
| LPALFTDLYSQEITCEEAREALP [A15C] | 3 |
| LPALFTDLYSQEITEEEAREALP [A15E] | 2.55 |
| LPALFTDLYSQEITHEEAREALP [A15H] | 2.6 |
| LPALFTDLYSQEITIEEAREALP [A15I] | 2.76 |
| LPALFTDLYSQEIEAEEAREALP [T14E] | 2.66 |
| LPALFTDLYSQEISAEEAREALP [T14S] | 2.67 |
| LPALFTDLYSQEILAEEAREALP [T14L] | 2.48 |
| LPALFTDLYSQEIPAEEAREALP [T14P] | 3.48 |
| LPALFTDLYSQEICAEEAREALP [T14C] | 2.48 |
| LPALFTDLYSQEIFAEEAREALP [T14F] | 2.48 |
| LPALFTDLYSQEIHAEEAREALP [T14H] | 2.46 |
| LPALFTDLYSQEIGAEEAREALP [T14G] | 2.73 |
| LPALFTDLYSQEINAEEAREALP [T14N] | 2.76 |
| LPALFTDLYSQEIYAEEAREALP [T14Y] | 2.56 |
| LPALFTDLYSQEIKAEEAREALP [T14K] | 2.34 |
| LPALFTDLYSQEIAAEEAREALP [T14A] | 2.21 |
| LPALFTDLYSQEIWAEEAREALP [T14W] | 2.62 |
| LPALFTDLYSQEIIAEEAREALP [T14I] | 2.25 |
| LPALFTDLYSQEIRAEEAREALP [T14R] | 2.44 |
| LPALFTDLYSQEIMAEEAREALP [T14M] | 2.45 |
| LPALFTDLYSQEIQAEEAREALP [T14Q] | 2.27 |
| LPALFTDLYSQEIDAEEAREALP [T14D] | 2.55 |
| LPALFTDLYSQEIVAEEAREALP [T14V] | 2.51 |
| LPALFTDTYSQEITAEEAREALP [L8T] | 3.69 |
| LPALFTDWYSQEITAEEAREALP [L8W] | 3.27 |

| Variant | protein stability index |
| --- | --- |
| LPALFTDYYSQEITAEEAREALP [L8Y] | 2.53 |
| LPALFTDSYSQEITAEEAREALP [L8S] | 4.05 |
| LPALFTDIYSQEITAEEAREALP [L8I] | 2.59 |
| LPALFTDPYSQEITAEEAREALP [L8P] | 5.43 |
| LPALFTDVYSQEITAEEAREALP [L8V] | 2.81 |
| LPALFTDNYSQEITAEEAREALP [L8N] | 3.46 |
| LPALFTDRYSQEITAEEAREALP [L8R] | 2.22 |
| LPALFTDEYSQEITAEEAREALP [L8E] | 4.59 |
| LPALFTDHYSQEITAEEAREALP [L8H] | 2.56 |
| LPALFTDAYSQEITAEEAREALP [L8A] | 3.14 |
| LPALFTDMYSQEITAEEAREALP [L8M] | 2.24 |
| LPALFTDCYSQEITAEEAREALP [L8C] | 3.77 |
| LPALFTDFYSQEITAEEAREALP [L8F] | 3.05 |
| LPALFTDGYSQEITAEEAREALP [L8G] | 5.28 |
| LPALFTDKYSQEITAEEAREALP [L8K] | 2.39 |
| LPALFTDDYSQEITAEEAREALP [L8D] | 5.11 |
| LPALFTDQYSQEITAEEAREALP [L8Q] | 2.91 |
| LPALFTDLYLQEITAEEAREALP [S10L] | 2.3 |
| LPALFTDLYKQEITAEEAREALP [S10K] | 2.48 |
| LPALFTDLYWQEITAEEAREALP [S10W] | 2.26 |
| LPALFTDLYAQEITAEEAREALP [S10A] | 2.52 |
| LPALFTDLYDQEITAEEAREALP [S10D] | 2.8 |
| LPALFTDLYQQEITAEEAREALP [S10Q] | 2.57 |
| LPALFTDLYIQEITAEEAREALP [S10I] | 1.95 |
| LPALFTDLYNQEITAEEAREALP [S10N] | 2.61 |

| Variant | protein stability index |
| --- | --- |
| LPALFTDLYVQEITAEEAREALP [S10V] | 2.35 |
| LPALFTDLYFQEITAEEAREALP [S10F] | 2.57 |
| LPALFTDLYMQEITAEEAREALP [S10M] | 2.26 |
| LPALFTDLYGQEITAEEAREALP [S10G] | 3.08 |
| LPALFTDLYYQEITAEEAREALP [S10Y] | 2.36 |
| LPALFTDLYPQEITAEEAREALP [S10P] | 3.79 |
| LPALFTDLYCQEITAEEAREALP [S10C] | 2.16 |
| LPALFTDLYTQEITAEEAREALP [S10T] | 2.38 |
| LPALFTDLYHQEITAEEAREALP [S10H] | 2.85 |
| LPALFTDLYRQEITAEEAREALP [S10R] | 2.71 |
| LPALFTDLYEQEITAEEAREALP [S10E] | 2.48 |
| LPALFCDLYSQEITAEEAREALP [T6C] | 3.02 |
| LPALFKDLYSQEITAEEAREALP [T6K] | 3.32 |
| LPALFIDLYSQEITAEEAREALP [T6I] | 2.7 |
| LPALFEDLYSQEITAEEAREALP [T6E] | 3.68 |
| LPALFFDLYSQEITAEEAREALP [T6F] | 4.22 |
| LPALFHDLYSQEITAEEAREALP [T6H] | 4.28 |
| LPALFYDLYSQEITAEEAREALP [T6Y] | 4.5 |
| LPALFGDLYSQEITAEEAREALP [T6G] | 4.09 |
| LPALFRDLYSQEITAEEAREALP [T6R] | 3.15 |
| LPALFMDLYSQEITAEEAREALP [T6M] | 3.69 |
| LPALFADLYSQEITAEEAREALP [T6A] | 2.34 |
| LPALFNDLYSQEITAEEAREALP [T6N] | 4.77 |
| LPALFPDLYSQEITAEEAREALP [T6P] | 5.24 |
| LPALFQDLYSQEITAEEAREALP [T6Q] | 2.18 |

| Variant | protein stability index |
| --- | --- |
| LPALFLDLYSQEITAEEAREALP [T6L] | 3.54 |
| LPALFDDLYSQEITAEEAREALP [T6D] | 5.37 |
| LPALFWDLYSQEITAEEAREALP [T6W] | 4.06 |
| LPALFVDLYSQEITAEEAREALP [T6V] | 2.24 |
| LPALFSDLYSQEITAEEAREALP [T6S] | 2.55 |
| LPALSTDLYSQEITAEEAREALP [F5S] | 5.37 |
| LPALLTDLYSQEITAEEAREALP [F5L] | 5.16 |
| LPALETDLYSQEITAEEAREALP [F5E] | 5.38 |
| LPALKTDLYSQEITAEEAREALP [F5K] | 5.25 |
| LPALGTDLYSQEITAEEAREALP [F5G] | 5.28 |
| LPALYTDLYSQEITAEEAREALP [F5Y] | 3.72 |
| LPALNTDLYSQEITAEEAREALP [F5N] | 5.52 |
| LPALITDLYSQEITAEEAREALP [F5I] | 5.08 |
| LPALQTDLYSQEITAEEAREALP [F5Q] | 5.24 |
| LPALRTDLYSQEITAEEAREALP [F5R] | 5.42 |
| LPALMTDLYSQEITAEEAREALP [F5M] | 5.24 |
| LPALWTDLYSQEITAEEAREALP [F5W] | 2.25 |
| LPALCTDLYSQEITAEEAREALP [F5C] | 5.41 |
| LPALTTDLYSQEITAEEAREALP [F5T] | 5.25 |
| LPALDTDLYSQEITAEEAREALP [F5D] | 5.58 |
| LPALVTDLYSQEITAEEAREALP [F5V] | 5.07 |
| LPALPTDLYSQEITAEEAREALP [F5P] | 5.3 |
